B1: human Ndel1 coiled-coil domain (Ndel1^CC, residues 1-195) (domain or fragment, UniProt Q9GZM8 1-195, looked up)
chain: MDGEDIPDFSSLKEETAYWKELSLKYKQSFQEARDELVEFQEGSRELEAELEAQLVQAEQRNRDLQADNQRLKYEVEALKEKLEHQYAQSYKQVSVLEDDLSQTRAIKEQLHKYVRELEQANDDLERAKRATIVSLEDFEQRLNQAIERNAFLESELDEKESLLVSVQRLKDEARDLRQELAVRERQQEVTRKSA
notes: Ndel1, human, coiled-coil domain, residues 1-195; also called NudEL^CC; source: E. coli BL21-CodonPlus (DE3)-RIPL, purified (Strep-tactin XT, HiTrap Q, SEC)
B4: yeast Ndl1 coiled-coil domain (Ndl1^CC, residues 2-132) (domain or fragment, S. cerevisiae, UniProt Q06568 2-132, looked up)
chain: VPNLDLETAIQIISSLETQLSELEGATKEYENDLEQVISKLKSDLLESQQQNKCNKKQITDLEIQVDELENENIQLRNKIETLQLESDRRLERNVLLEHELLDTKEALQKLRVSKEEATSGETRRNTRSLP
notes: Ndl1, S. cerevisiae, coiled-coil domain, residues 2-132; No cleavage of the tags is described; also called StrepII-sfGFP-Ndl1^CC; source: E. coli BL21-CodonPlus (DE3)-RIPL, purified (Strep-tactin XT, SEC)

Data set [1] deals with the molecule itself. Briefly: mass photometry; human proteins; preincubated at 0.5-1 µM for 5 min at room temperature, 1:1 molar ratio, measured at 5-20 nM; 90 mM HEPES-KOH pH 7.4, 50 mM K-acetate.
Data set [2] has as its target T1, yeast dynein complex, wild type (Dyn1, Pac11, Dyn3, Dyn2) (S. cerevisiae, UniProt P36022 1-4092; P40960 1-533; Q04949 1-312; Q02647 1-92, JF503-, JFX549- or JFX646-HaloTag ligand on the HaloTag).
T1 construct: dynein heavy chain Dyn1, S. cerevisiae; dynein intermediate chain Pac11, S. cerevisiae; dynein light-intermediate chain Dyn3, S. cerevisiae; dynein light chain Dyn2, S. cerevisiae; also called WT dynein; HaloTag-Dyn1 complex; source: S. cerevisiae, all genes overexpressed from GAL1p; purified (IgG sepharose, TEV elution); not shown: 8His (also printed 6xHis), N-terminal, cleaved; ZZ, N-terminal, …
In words: TIRF microscopy microtubule recruitment assay; yeast proteins; dynein on taxol-stabilised microtubules held by anti-tubulin antibody; fluorescent partner flowed in, TEV buffer with 1 mM DTT, 5-10 min; intensity along microtubules. To be noted: both partners purified.

Data set [3] concerns the target T2, yeast dynein^∆ICN complex (Pac11 lacking its N-terminal 43 residues) (S. cerevisiae, UniProt P36022 1-4092; P40960 44-533; Q04949 1-312; Q02647 1-92, JF503-, JFX549- or JFX646-HaloTag ligand on the HaloTag).
T2 construct: dynein heavy chain Dyn1, S. cerevisiae; dynein intermediate chain Pac11, S. cerevisiae, N-terminal 43 residues deleted; dynein light-intermediate chain Dyn3, S. cerevisiae; dynein light chain Dyn2, S. cerevisiae; also called Pac11^∆ICN dynein; source: S. cerevisiae, all genes overexpressed from GAL1p; purified (IgG sepharose, TEV elution); not shown: 8His (also printed 6xHis), N-terminal, …
The description is as above. To be noted: both partners purified.

Data set [4] concerns the molecule itself. In words: mass photometry; yeast proteins; mixed 1:1 at 50-100 nM each, 1-2 min, measured at 10-20 nM; 50 mM Tris pH 8.0, 150 mM K-acetate.
For data set [5], the target named is B4. The data set is described as above. To be noted: both partners purified.
Data set [6] deals with B1. Briefly: mass photometry; human proteins; preincubated at 0.5-1 µM for 5 min at room temperature, 1:1 molar ratio, measured at 5-20 nM; 90 mM HEPES-KOH pH 7.4, 50 mM K-acetate. To be noted: both partners purified.

T1 sequence (P36022 whole entry, chain 1 of 4): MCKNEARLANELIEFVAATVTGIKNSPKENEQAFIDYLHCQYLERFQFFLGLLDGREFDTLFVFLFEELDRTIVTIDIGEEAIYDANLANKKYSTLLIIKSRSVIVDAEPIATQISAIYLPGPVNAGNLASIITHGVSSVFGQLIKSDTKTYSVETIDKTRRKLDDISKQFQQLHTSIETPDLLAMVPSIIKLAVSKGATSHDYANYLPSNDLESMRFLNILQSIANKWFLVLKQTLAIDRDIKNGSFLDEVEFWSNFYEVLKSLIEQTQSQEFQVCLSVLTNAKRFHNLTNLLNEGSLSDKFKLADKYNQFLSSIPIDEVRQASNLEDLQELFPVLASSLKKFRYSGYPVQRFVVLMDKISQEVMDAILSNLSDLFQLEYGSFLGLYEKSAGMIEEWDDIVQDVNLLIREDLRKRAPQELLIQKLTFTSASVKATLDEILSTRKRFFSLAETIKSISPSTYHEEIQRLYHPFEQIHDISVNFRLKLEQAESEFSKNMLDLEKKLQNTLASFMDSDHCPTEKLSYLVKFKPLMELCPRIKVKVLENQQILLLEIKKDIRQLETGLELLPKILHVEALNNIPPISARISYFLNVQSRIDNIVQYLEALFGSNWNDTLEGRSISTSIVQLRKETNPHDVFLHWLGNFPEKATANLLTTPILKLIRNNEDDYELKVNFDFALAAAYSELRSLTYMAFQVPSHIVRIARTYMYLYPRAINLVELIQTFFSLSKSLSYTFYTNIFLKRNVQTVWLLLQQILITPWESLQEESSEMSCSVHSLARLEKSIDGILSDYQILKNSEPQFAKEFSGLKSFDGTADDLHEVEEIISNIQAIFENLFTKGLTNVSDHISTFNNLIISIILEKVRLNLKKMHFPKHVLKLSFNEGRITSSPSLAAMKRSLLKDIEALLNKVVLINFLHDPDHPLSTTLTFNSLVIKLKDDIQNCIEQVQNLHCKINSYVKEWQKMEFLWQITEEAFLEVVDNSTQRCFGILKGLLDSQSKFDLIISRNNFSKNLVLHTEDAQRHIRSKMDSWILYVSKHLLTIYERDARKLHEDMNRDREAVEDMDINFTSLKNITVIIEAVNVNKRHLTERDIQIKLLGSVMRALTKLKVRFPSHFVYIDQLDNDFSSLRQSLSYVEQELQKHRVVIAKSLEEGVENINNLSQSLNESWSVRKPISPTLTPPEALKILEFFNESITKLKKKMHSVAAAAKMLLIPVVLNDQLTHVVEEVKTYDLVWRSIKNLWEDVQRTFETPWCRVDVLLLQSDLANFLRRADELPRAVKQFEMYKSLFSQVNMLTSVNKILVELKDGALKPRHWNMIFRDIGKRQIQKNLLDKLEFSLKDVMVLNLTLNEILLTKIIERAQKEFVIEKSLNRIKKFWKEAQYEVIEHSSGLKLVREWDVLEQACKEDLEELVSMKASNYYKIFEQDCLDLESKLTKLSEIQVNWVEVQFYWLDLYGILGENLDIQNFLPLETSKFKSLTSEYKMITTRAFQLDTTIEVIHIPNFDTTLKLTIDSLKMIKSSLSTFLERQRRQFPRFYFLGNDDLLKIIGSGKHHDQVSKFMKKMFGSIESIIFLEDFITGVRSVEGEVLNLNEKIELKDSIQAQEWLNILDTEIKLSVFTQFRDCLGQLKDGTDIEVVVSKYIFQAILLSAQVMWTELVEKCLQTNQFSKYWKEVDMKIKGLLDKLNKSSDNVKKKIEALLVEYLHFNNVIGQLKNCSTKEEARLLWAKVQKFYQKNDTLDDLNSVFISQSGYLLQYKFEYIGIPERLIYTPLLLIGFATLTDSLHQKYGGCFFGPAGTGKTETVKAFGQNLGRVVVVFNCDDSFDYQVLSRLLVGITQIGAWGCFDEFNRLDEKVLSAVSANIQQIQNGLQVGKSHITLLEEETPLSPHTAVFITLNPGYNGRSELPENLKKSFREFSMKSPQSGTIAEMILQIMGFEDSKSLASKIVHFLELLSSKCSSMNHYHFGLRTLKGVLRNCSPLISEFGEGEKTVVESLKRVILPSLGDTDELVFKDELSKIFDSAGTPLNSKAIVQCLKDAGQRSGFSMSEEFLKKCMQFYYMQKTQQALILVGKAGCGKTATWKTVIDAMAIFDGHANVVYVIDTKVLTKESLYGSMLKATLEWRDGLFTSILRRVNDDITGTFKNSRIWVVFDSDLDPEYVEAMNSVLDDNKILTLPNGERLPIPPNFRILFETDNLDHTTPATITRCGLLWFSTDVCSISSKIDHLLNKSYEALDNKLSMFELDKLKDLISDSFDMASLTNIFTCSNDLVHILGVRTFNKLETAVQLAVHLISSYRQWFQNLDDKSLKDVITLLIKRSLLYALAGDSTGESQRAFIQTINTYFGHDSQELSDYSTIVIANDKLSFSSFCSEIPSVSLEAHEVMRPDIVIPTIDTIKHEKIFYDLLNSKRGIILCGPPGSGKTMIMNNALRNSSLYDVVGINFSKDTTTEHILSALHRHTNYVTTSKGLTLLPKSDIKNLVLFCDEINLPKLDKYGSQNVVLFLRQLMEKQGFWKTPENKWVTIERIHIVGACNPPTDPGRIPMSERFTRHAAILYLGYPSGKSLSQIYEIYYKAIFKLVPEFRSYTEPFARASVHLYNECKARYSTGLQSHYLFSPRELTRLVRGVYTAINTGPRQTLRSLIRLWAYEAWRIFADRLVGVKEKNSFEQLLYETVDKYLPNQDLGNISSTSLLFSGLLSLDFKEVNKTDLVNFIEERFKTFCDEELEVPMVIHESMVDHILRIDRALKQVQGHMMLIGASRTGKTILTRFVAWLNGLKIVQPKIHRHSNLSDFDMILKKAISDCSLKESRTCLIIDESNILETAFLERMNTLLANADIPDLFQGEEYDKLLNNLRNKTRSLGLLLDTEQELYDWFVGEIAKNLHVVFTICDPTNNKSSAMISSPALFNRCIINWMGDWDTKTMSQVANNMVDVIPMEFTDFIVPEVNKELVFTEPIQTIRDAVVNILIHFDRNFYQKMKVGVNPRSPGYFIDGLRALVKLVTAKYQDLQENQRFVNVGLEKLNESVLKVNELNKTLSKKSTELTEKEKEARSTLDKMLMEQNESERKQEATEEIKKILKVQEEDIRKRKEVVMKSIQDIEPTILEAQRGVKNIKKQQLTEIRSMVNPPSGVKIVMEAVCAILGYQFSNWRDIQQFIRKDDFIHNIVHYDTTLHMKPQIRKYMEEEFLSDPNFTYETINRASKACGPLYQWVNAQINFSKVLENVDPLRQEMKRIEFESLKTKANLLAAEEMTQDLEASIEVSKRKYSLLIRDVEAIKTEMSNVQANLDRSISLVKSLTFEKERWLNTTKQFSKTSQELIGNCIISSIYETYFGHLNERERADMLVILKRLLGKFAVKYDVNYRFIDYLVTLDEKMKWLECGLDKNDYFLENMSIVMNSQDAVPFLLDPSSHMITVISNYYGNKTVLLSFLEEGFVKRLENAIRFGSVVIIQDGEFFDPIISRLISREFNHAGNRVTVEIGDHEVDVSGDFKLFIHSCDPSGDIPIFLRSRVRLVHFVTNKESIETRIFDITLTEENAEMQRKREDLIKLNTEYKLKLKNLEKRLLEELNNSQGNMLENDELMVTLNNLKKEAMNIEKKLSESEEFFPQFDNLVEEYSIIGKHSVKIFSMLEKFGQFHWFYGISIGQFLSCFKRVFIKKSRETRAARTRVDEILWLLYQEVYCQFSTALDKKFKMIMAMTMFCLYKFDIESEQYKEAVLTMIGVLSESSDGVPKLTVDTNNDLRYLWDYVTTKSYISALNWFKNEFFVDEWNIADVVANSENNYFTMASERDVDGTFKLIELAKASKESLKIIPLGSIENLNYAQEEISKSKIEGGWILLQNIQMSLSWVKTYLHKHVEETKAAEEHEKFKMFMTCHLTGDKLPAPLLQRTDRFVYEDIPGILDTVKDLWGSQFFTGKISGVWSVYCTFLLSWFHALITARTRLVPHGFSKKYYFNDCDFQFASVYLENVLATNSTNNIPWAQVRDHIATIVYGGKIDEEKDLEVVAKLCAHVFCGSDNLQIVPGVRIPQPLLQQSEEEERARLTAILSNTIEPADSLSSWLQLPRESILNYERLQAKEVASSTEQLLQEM
T1 sequence (P40960 whole entry, chain 2 of 4): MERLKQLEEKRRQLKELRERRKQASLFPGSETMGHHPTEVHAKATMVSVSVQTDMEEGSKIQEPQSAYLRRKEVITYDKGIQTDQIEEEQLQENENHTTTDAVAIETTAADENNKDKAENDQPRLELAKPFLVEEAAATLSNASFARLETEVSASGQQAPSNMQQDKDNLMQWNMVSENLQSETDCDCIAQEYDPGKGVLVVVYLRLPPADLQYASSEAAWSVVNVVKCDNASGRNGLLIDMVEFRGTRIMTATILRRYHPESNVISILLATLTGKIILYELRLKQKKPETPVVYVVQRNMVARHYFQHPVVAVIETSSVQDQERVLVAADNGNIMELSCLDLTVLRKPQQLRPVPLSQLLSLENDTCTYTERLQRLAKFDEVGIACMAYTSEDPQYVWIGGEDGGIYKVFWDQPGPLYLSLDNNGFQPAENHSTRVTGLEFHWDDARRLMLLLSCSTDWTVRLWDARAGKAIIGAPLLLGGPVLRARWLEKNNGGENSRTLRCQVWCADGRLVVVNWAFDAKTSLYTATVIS
T1 sequence (Q04949 whole entry, chain 3 of 4): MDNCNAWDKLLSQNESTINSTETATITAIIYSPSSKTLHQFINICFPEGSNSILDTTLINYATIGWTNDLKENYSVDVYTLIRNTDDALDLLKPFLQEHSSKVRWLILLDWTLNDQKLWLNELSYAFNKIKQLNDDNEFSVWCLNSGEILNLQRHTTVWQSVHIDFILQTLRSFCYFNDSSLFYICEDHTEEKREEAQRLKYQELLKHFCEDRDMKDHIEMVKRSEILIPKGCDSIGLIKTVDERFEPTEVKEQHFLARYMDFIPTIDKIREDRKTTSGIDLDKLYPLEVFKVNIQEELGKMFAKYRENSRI
T1 sequence (Q02647 whole entry, chain 4 of 4): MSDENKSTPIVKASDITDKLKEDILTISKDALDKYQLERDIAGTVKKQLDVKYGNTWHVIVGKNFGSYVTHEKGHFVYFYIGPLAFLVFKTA

With B1, in data set [1], the “stoichiometry N” value came out at 2.

B2: full-length yeast Pac1 with C-terminal FLAG-SNAPf (natural protein, S. cerevisiae, UniProt P39946 1-494, looked up)
chain: MTNWQQQLPLTDTQKNELDKSVLRYLNWNYKQTVRHEHAQDYESVRHAIVTLSGFLLQESVDRQEFISNNDTSNESMVDIDELLLPKKWNSIVRLQKKIIELEQNTETLVSQIKDLNTQVSELAQFKPTTSNGTSAHNVLKWIPRNLPSCLINVESSVTSVKLHPNLPIVFVATDHGKLYAFDLFNYTIPLASLQSHTKAITSMDVLFTNYTNSSKKNYLVIVTASKDLQIHVFKWVSEECKFQQIRSLLGHEHIVSAVKIWQKNNDVHIASCSRDQTVKIWDFHNGWSLKTFQPHSQWVRSIDVLGDYIISGSHDTTLRLTHWPSGNGLSVGTGHEFPIEKVKFIHFIEDSPEIRFRTPSTDRYKNWGMQYCVSASRDRTIKIWEIPLPTLMAHRAPIPNPTDSNFRCVLTLKGHLSWVRDISIRGQYLFSCADDKSVRCWDLNTGQCLHVWEKLHTGFVNCLDLDVDFDSNVTPRQMMVTGGLDCKSNVFMR
notes: Pac1, yeast homolog of LIS1, full length; also called WT Pac1; Pac1-SNAPf; source: S. cerevisiae, overexpressed from GAL1p; purified (IgG beads, TEV elution); not shown: 8xHis, N-terminal, cleaved; ZZ, N-terminal, cleaved; SNAPf, C-terminal, kept
Take B2: the binding result in data set [2] and in data set [3] was “binds” throughout. Besides, the “stoichiometry N” value in data set [4] amounted to 2; in data set [5], 1 Pac1 dimer per Ndl1 dimer.

B3: LIS1, wild type, as used in mass photometry (construct not told) (natural protein, human, UniProt P43034 1-410, looked up)
chain: MVLSQRQRDELNRAIADYLRSNGYEEAYSVFKKEAELDVNEELDKKYAGLLEKKWTSVIRLQKKVMELESKLNEAKEEFTSGGPLGQKRDPKEWIPRPPEKYALSGHRSPVTRVIFHPVFSVMVSASEDATIKVWDYETGDFERTLKGHTDSVQDISFDHSGKLLASCSADMTIKLWDFQGFECIRTMHGHDHNVSSVAIMPNGDHIVSASRDKTIKMWEVQTGYCVKTFTGHREWVRMVRPNQDGTLIASCSNDQTVRVWVVATKECKAELREHEHVVECISWAPESSYSSISEATGSETKKSGKPGPFLLSGSRDKTIKMWDVSTGMCLMTLVGHDNWVRGVLFHSGGKFILSCADDKTLRVWDYKNKRCMKTLNAHEHFVTSLDFHKTAPYVVTGSVDQTVKVWECR
notes: LIS1, human; also called WT LIS1; source: Sf9 cells, purified
On to B3, for which the “stoichiometry N” value in data set [6] is 1 LIS1 dimer per Ndel1 dimer. In the case of B4, in data set [2], the binding result is given as “binds”. The “stoichiometry N” value in data set [4] was 2.

B5: yeast Ndl1^CC E64A R78A (domain or fragment, S. cerevisiae, UniProt Q06568 2-132, looked up)
chain: VPNLDLETAIQIISSLETQLSELEGATKEYENDLEQVISKLKSDLLESQQQNKCNKKQITDLAIQVDELENENIQLANKIETLQLESDRRLERNVLLEHELLDTKEALQKLRVSKEEATSGETRRNTRSLP
notes: Ndl1, S. cerevisiae, residues 2-132, E64 and R78 changed to alanines; also called interface 2 mutant of Ndl1^CC; source: E. coli BL21-CodonPlus (DE3)-RIPL, purified
Turning to B5, the binding result in data set [2] was “binds”.

B6: full-length yeast Ndl1 with C-terminal FLAG-SNAPf (natural protein, S. cerevisiae, UniProt Q06568 1-189, looked up)
chain: MVPNLDLETAIQIISSLETQLSELEGATKEYENDLEQVISKLKSDLLESQQQNKCNKKQITDLEIQVDELENENIQLRNKIETLQLESDRRLERNVLLEHELLDTKEALQKLRVSKEEATSGETRRNTRSLPSQNKKMKLFKDTIKVSTTSSTLYLQNMAKTNNAARSHCNIPNTQITQSTVIATTSSV
modifications: JFX554-SNAP or JFX650-SNAP ligand on the SNAPf tag
notes: Ndl1, yeast homolog of Ndel1, full length; also called Ndl1-SNAPf; source: S. cerevisiae, overexpressed from GAL1p; purified (IgG beads, TEV elution, SEC); not shown: SNAPf, C-terminal, kept; ZZ, C-terminal, cleaved; 8xHis, C-terminal, cleaved
As to B6, the binding result in data set [2] is reported as “binds”.

B7: yeast Nip100 coiled-coil 1 (Nip100^CC1, residues 97-377) with N-terminal eGFP (domain or fragment, S. cerevisiae, UniProt P33420 97-377, looked up)
chain: EHSLLNGNAAQETIKNLQVKCESLASKLNKIKIENHELKTSVEKLSTNETVLLSKISRLDKLVKELKVENGNMKTHLDNFNHLLDASDSVMAPDLDKGTLLERSHLLQGLLDQTKLSYDKAMKVQEDLLEENTQLLEENAVLSKKISDLGLQLQQTNNTIGDLALQIEAQSKSSNIVDKLTNDNILLTSNIKALNNELEELQAKEKLDENLRITYEQLEQELRLQLSNLQSALENEKEIAGTYIEENSRLKATLESIEAKTSHKFQSLELKVNTLQEELYQ
notes: Nip100, yeast homolog of p150^Glued, coiled-coil 1, residues 97-377; also called GST-eGFP-Nip100^CC1; source: E. coli BL21-CodonPlus (DE3)-RIPL, purified (glutathione agarose, Ulp1 digest, SEC); not shown: GST, N-terminal, cleaved; SUMO, N-terminal, cleaved
As to B7, the binding result in data set [2] is “binds”.

(Values after publication PMC10511499, “Conserved roles for the dynein intermediate chain and Ndel1 in assembly and activation of dynein” (Nature Communications, 2023).)
